# Data as given in US20260234700, “MUTANT CAS12J ENDONUCLEASES” (University of Copenhagen, published 2026).
# Residue numbers refer to the chain shown, from its start.
# T1: CasΦ3 Q197A (Biggiephage, Q197A)
# T1 chain: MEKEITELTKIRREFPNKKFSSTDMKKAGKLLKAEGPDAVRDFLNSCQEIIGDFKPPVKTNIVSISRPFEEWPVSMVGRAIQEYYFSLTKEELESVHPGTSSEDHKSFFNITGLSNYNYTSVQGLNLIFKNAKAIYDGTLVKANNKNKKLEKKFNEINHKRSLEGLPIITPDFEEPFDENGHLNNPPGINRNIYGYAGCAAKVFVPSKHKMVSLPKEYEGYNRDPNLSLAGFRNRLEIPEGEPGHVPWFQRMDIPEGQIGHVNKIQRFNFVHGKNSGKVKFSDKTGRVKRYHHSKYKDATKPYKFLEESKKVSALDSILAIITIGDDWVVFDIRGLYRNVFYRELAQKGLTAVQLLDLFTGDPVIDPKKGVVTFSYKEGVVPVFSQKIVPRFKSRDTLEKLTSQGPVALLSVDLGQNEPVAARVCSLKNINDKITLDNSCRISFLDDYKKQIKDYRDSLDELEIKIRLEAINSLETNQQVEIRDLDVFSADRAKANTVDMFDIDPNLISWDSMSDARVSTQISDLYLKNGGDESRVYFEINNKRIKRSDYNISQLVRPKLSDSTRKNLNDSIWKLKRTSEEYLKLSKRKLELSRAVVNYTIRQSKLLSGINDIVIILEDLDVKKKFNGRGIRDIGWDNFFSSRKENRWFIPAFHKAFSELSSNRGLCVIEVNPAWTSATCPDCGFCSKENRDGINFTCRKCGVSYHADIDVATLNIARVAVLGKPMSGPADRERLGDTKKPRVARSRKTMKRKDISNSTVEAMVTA
# T2: CasΦ3 Q123A (Biggiephage, Q123A)
# T2 chain: T1 chain with Q123A, A197Q
# T3: CasΦ3 K30A (Biggiephage, K30A)
# T3 chain: T1 chain with K30A, A197Q
# B1: CasΦ3 crRNA ; FAM-labelled target dsDNA (5F-NT-TTC-30/3F-T-AAG-30) (ssRNA ; dsDNA)
# RNA: UAUUGAUUGCCCAGUACGCUGGGACAGCUGGUAAUGGGAUACCUU
# DNA 1: GTAATTCAGCTGGTAATGGGATACCTTGTGCTACAGC
# DNA 2: GCTGTAGCACAAGGTATCCCATTACCAGCTGAATTAC
# Columns and labels:
# Experiment in all cases: cleavage_in_vitro; PAM TTC; 5 mM Mg2+
# Settings in all cases: tags: C-terminal His6; label: 5'-FAM on NT-strand, 3'-FAM on T-strand
# CasΦ3 Q197A = target: T1, CasΦ3 Q197A
# CasΦ3 Q123A = target: T2, CasΦ3 Q123A
# CasΦ3 K30A = target: T3, CasΦ3 K30A
binder,measurement,setting,value
B1,activity,CasΦ3 Q197A,~90 % reduction vs WT
same,activity,CasΦ3 Q123A,~90 % reduction vs WT
same,activity,CasΦ3 K30A,~55 % reduction vs WT
